Measurements as given in US10704030B2, “P450-BM3 variants with improved activity” (Codexis, Inc., priority 2015, dated 2020).

Assays:
Type in all cases: biochemical
[1] = Validation of generalist properties: oxidation of diclofenac by lyophilized P450-BM3 variant, UPLC-MS; details: for % Conv. / TON: [Diclofenac] = 1 mM; for TON: TON = [substrate]*% conversion/[P450]
Experimental: (§1) For the production of lyophilized protein powders, LB agar plates supplemented with chloramphenicol (30 μg/mL) were streaked with E. coli containing a desired B. megaterium P450-BM3 variant in an IPTG-inducible vector. The plates were grown at 37° C. for 16 hrs before single clones were selected to inoculate a 15 mL Falcon™ tube (Fisher) containing TB media (3 mL) supplemented with chloramphenicol (30 μg/mL). The tube was shaken at 200 rpm, 30° C., and 85% humidity for 20-24 h to grow the cultures to saturation. Then, 2.5 mL of the overnight culture was used to inoculate sterile 1 L flasks containing TB medium (250 mL) supplemented with chloramphenicol (30 μg/mL), trace element solution (as described above), and 0.05 g/L ammonium iron (III) citrate. After being shaken at 250 rpm, 30° C., and 85% humidity to an OD600 of 0.8-1.2, P450 expression was induced by addition of IPTG (500 uM) and the heme precursor 5-aminolevulinic acid (5-ALA) to a final concentration of 500 uM. The cultures were grown for additional 20-24 hours and centrifuged in pre-weighed 250 mL centrifuge bottles for 20 minutes at 4000 rpm, 4° C. The supernatants were discarded, and the centrifuge bottles containing cell pellets were weighed. The pellets were resuspended in 50 mM potassium phosphate buffer with 2 mM DTT, pH 8.0 (5 mL of buffer per gram of cell pellet). The cells were lysed using a microfluidizer homogenizer, and the suspensions of cells and lysate were collected in sterile 50 mL centrifuge tubes. The samples were centrifuged for 30 minutes at 10,000 rpm, 4° C. The clarified lysate was collected into a plastic petri plate and frozen at −80° C. prior to lyophilization. The enzyme-containing lysates were lyophilized using standard methods known in the art.
(§2) Enzyme stocks (˜12 μM) were prepared by dissolving ˜20 mg of each enzyme in 100 mM potassium phosphate buffer, pH 8.0 (1 mL). The concentration of each enzyme stock solution was determined by the UV-visible absorption spectroscopy (after centrifugation to remove particulates) and diluted to standardize at 12 μM heme protein. Substrate solutions were prepared by dissolving each substrate in DMSO to reach a final concentration of 20 mM or 40 mM. Reaction mix (235 μL) followed by enzyme solution (50 μL) was added to the plates. The substrate stock solution was added to the enzyme solutions (15 μL at the two different concentrations). Each reaction contained 100 mM potassium phosphate, 1.0 mM NADP+, 25 mM glucose, 0.5 mg/mL glucose dehydrogenase, 5% DMSO and substrate at 1 or 2 mM. Loratadine, imatinib, and gefitinib (See, FIG. 1) were selected as substrates in addition to diclofenac to validate improved BM3 variants. The reactions were shaken at 450 rpm at 30° C. over 24 hours. All reactions were diluted with acetonitrile to a final concentration of 0.5 mM substrate. The plates were then centrifuged at 3,000 g for 1 hour at 20° C. The supernatant was diluted 1:1 with acetonitrile, filtered using a 0.4 micron filter, and analyzed by UPLC-MS.
(§3) For UPLC-MS analysis, the quenched and filtered reactions were transferred to 96-well HTP plates for analysis by UPLC on a Waters Acquity H-class system equipped with an autosampler. 1 uL of quenched sample was injected onto an Acquity UPLC HSS T3 column, 100 Å, (1.8 um; 2.1×100 mm). The column was eluted at a constant flow rate of 0.6 mL/min; conditions with solvent A (0.05% trifluoroacetic acid v/v, in H2O) and solvent B (0.05% trifluoroacetic acid v/v, in acetonitrile) used to elute the products of the reaction were: 0-2 min, A/B 95:5; 2-2.9 min, A/B 5:95; 2.9-3 min, A/B 95:5; 3-3.5 min, A/B 95:5. Column eluent was monitored by PDA (200-600 nm) prior to MS analysis in positive ESI mode (desolvation temperature 350° C., 3.25 kV spray voltage, cone voltage 25V). The column eluent was diverted to waste for the first 0.7 minutes of the run. For the remainder of the LC run, both MS (m/z 95-600 scan range) and MS/MS were collected. […]

[2] = Validation of generalist properties: oxidation of loratadine by lyophilized P450-BM3 variant, UPLC-MS; details: for % Conv. / TON: [Loratadine] = 1 mM; for TON: TON = [substrate]*% conversion/[P450]
Experimental: as §1, §2, §3

[3] = Validation of generalist properties: oxidation of imatinib by lyophilized P450-BM3 variant, UPLC-MS; details: for % Conv. / TON: [Imatinib] = 1 mM; for TON: TON = [substrate]*% conversion/[P450]
Experimental: as §1, §2, §3

[4] = Validation of generalist properties: oxidation of gefitinib by lyophilized P450-BM3 variant, UPLC-MS; details: for % Conv. / TON: [Gefitinib] = 1 mM; for TON: TON = [substrate]*% conversion/[P450]
Experimental: as §1, §2, §3

| Molecule | % Conv. [1] | TON [1] | performance (% conversion at 1 mM substrate loading), in words ([1]; diclofenac, 1 mM substrate loading) | % Conv. [2] | TON [2] | performance (% conversion at 1 mM substrate loading), in words ([2]; loratadine, 1 mM substrate loading) | % Conv. [3] | TON [3] | performance (% conversion at 1 mM substrate loading), in words ([3]; imatinib, 1 mM substrate loading) | % Conv. [4] | TON [4] | performance (% conversion at 1 mM substrate loading), in words ([4]; gefitinib, 1 mM substrate loading) |
| --- | --- | --- | --- | --- | --- | --- | --- | --- | --- | --- | --- | --- |
| SEQ ID NO: 4: P450-BM3 parental backbone from the commercially available MCYP panel (MCYP-0343; Codexis) (protein, P450_BM3) MTIKEMPQPKTFGELKNLPLLNTDKPVQALMKIADELGEIFKFEAPGCVTRYLSSQRLIKEACDESRFDKNLSQALKFARDFAGDGLVTSWTHEINWKKAHNILLPSFSQQAMKGYHAMMVDIAVQLVQKWERLNADEHIEVSEDMTRLTLDTIGLCGFNYRFNSFYRDQPHPFIISMVRALDEVMNKLQRANPDDPAYDENKRQCQEDIKVMNDLVDKIIADRKARGEQSDDLLTQMLNGKDPETGEPLDDGNISYQIITFLIAGHETTSGLLSFALYFLVKNPHVLQKVAEEAARVLVDPVPSYKQVKQLKYVGMVLNEALRLWPTAPAFSLYAKEDTVLGGEYPLEKGDEVMVLIPQLHRDKTIWGDDVEEFRPERFENPSAIPQHAFKPFGNGQRACIGQQFALHEATLVLGMMLKHFDFEDHTNYELDIKETLTLKPEGFVVKAKSKKIPLGGIPSPSTEQSAKKVRKKAENAHNTPLLVLYGSNMGTAEGTARDLADIAMSKGFAPQVATLDSHAGNLPREGAVLIVTASYNGHPPDNAKQFVDWLDQASADEVKGVRYSVFGCGDKNWATTYQKVPAFIDETLAAKGAENIADRGEADASDDFEGTYEEWREHMWSDVAAYFNLDIENSEDNKSTLSLQFVDSAADMPLAKMHGAFSTNVVASKELQQPGSARSTRHLEIELPKEASYQEGDHLGVIPRNYEGIVNRVTARFGLDASQQIRLEAEEEKLAHLPLAKTVSVEELLQYVELQDPVTRTQLRAMAAKTVCPPHKVELEALLEKQAYKEQVLAKRLTMLELLEKYPACEMKFSEFIALLPSIRPRYYSISSSPRVDEKQASITVSVVSGEAWSGYGEYKGIASNYLAELQEGDTITCFISTPQSEFTLPKDPETPLIMVGPGTGVAPFRGFVQARKQLKEQGQSLGEAHLYFGCRSPHEDYLYQEELENAQSEGIITLHTAFSRMPNQPKTYVQHVMEQDGKKLIELLDQGAHFYICGDGSQMAPAVEATLMKSYADVHQVSEADARLWLQQLEEKGRYAKDVWAG | +++ (10.01-15.00) | ‡‡‡ (5001-10000) | moderate activity | ++++ (15.01-20.00) | ‡‡‡‡ (10000-50000) | moderate activity | ++ (5.01-10.00) | ‡‡ (1001-5000) | low activity | + (0-5.00) | ‡ (0-1000) | low activity |
| SEQ ID NO: 2: P450-BM3 parental backbone from the commercially available MCYP panel; a chimera, P450 domain 86% identical to Bacillus subtilis P450 (protein, P450_BM3, P450-BM3 parental backbone from the commercially available MCYP panel; a chimera, P450 domain 86% identical to Bacillus subtilis P450) MLMKQASAIPQPKTYGPLKNLPHLEKEQLSQSLWRIADELGPIFRFDFPGVSSVFVSGHNLVAEVCDEERFDKSIEGALEKVRAFSGDGLATSWTHEPNWRKAHNILMPTFSQRAMKDYHEKMVDIATQLIQKWSRLNPNEEIDVADDMTRLTLDTIGLCGFNYRFNSFYRDQPHPFITSMVRALDEAMNKLQRANPDDPAYDENKRQFQEDIKVMNDLVDSIIAERRANGDQDEKDLLARMLNVEDPETGEKLDDENIRFQIITFLIAGHETTSGLLSFAIYCLLTHPEKLKKAQEEADRVLTDDTPEYKQIQQLKYIRMVLNETLRLYPTAPAFSLYAKEDTVLGGEYPISKGQPVTVLIPKLHRDQNAWGPDAEDFRPERFEDPSSIPHHAYKPFGNGQRACIGMQFALQEATMVLGLVLKHFELINHTGYELKIKEALTIKPDDFKITVKPRKTAAINVQRKEQAEQSAKKVRKKAENAHNTPLLVLYGSNMGTAEGTARDLADIAMSKGFAPQVATLDSHAGNLPREGAVLIVTASYNGHPPDNAKQFVDWLDQASADEVKGVRYSVFGCGDKNWATTYQKVPAFIDETLAAKGAENIADRGEADASDDFEGTYEEWREHMWSDVAAYFNLDIENSEDNKSTLSLQFVDSAADMPLAKMHGAFSTNVVASKELQQPGSARSTRHLEIELPKEASYQEGDHLGVIPRNYEGIVNRVTARFGLDASQQIRLEAEEEKLAHLPLAKTVSVEELLQYVELQDPVTRTQLRAMAAKTVCPPHKVELEALLEKQAYKEQVLAKRLTMLELLEKYPACEMKFSEFIALLPSIRPRYYSISSSPRVDEKQASITVSVVSGEAWSGYGEYKGIASNYLAELQEGDTITCFISTPQSEFTLPKDPETPLIMVGPGTGVAPFRGFVQARKQLKEQGQSLGEAHLYFGCRSPHEDYLYQEELENAQSEGIITLHTAFSRMPNQPKTYVQHVMEQDGKKLIELLDQGAHFYICGDGSQMAPAVEATLMKSYADVHQVSEADARLWLQQLEEKGRYAKDVWAG | + (0-5.00) | ‡ (0-1000) |  | + (0-5.00) | ‡ (0-1000) |  | ++ (5.01-10.00) | ‡‡ (1001-5000) |  | + (0-5.00) | ‡ (0-1000) |  |
